± gives the uncertainty stated by the source.
Test: self-splicing fitness, log relative to wild type (ln ratio); higher = more splicing; Tetrahymena group I intron in knt gene, E. coli kanamycin selection, DiMSum; sequences stand for … in CUCUCU…GGAGGGAAAAGUUAUCAGGCAUGCACCUGGUAGCUAGUCUUUAAACCAAUAGAUUGCAUCGGUUUAAAAGGCAAGACCGUCAAAUUGCGGGAAAGGGGUCAACAGCCGUUCAGUACCAAGUCUCAGGGGAAACUUUGAGAUGGCCUUGCAAAGGGUAUGGUAAUAAGCUGACGGACAUGGUCCUAACCACGCAGCCAAGUCCUAAGUCAACAGAUCUUCUGUUGAUAUGGAUGCAGUUCACAGACUAAAUGUCGGUCGGGGAAGAUGUAUUCUUCUCAUAAGAUAUAGUCGGACCUCUCCUUAAUGGGAGCUAGCGGAUGAAGUGAUGCAACACUGGAGCCGCUGGGAACUAAUUUGUAUGCGAAAGUAUAUUGAUUAGUUUUGGAGUACUCGUGGUCG
Method in brief: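 Pooled colonies went to amplicon sequencing on an Illumina HiSeq 2500 after six replicate transformations. The plates were LB agar with 100 μg/mL carbenicillin, 50 μM IPTG and 0.2% rhamnose, with or without 25 μg/mL kanamycin, incubated overnight at 37°C or 30°C. The E. coli BL21(DE3) library had all eight P1ex-region intron nucleotides randomised, the intron placed in the knt kanamycin-resistance gene on pET-22b(+). DiMSum fitness is the error-weighted combination of replicate fold changes, kanamycin against none, normalised to wild type.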

Sequence: GAUAAGCAAUAUUACGGCAA
- self-splicing fitness (ln) (30 °C): -0.963 ± 0.14
- self-splicing fitness (ln) (37 °C): -0.998 ± 0.16

Sequence: GUUAAGCAAUAUUACGGGCA
- self-splicing fitness (ln) (30 °C): -0.851 ± 0.15
- self-splicing fitness (ln) (37 °C): -1.14 ± 0.14

Sequence: GUAGAGCAAUAUUACGUACG
- self-splicing fitness (ln) (30 °C): -1.92 ± 0.19
- self-splicing fitness (ln) (37 °C): -1.35 ± 0.35

Sequence: ACCAAGCAAUAUUACGCGGA
- self-splicing fitness (ln) (30 °C): -1.11 ± 0.068
- self-splicing fitness (ln) (37 °C): -0.537 ± 0.077

Sequence: GGGCAGCAAUAUUACGAAAA
- self-splicing fitness (ln) (30 °C): -2.12 ± 0.38
- self-splicing fitness (ln) (37 °C): -2.31 ± 0.4

Sequence: GCAUAGCAAUAUUACGCAAG
- self-splicing fitness (ln) (30 °C): -3.49 ± 0.41
- self-splicing fitness (ln) (37 °C): -2.31 ± 0.33

Sequence: GACUAGCAAUAUUACGCUAA
- self-splicing fitness (ln) (30 °C): -1.08 ± 0.12
- self-splicing fitness (ln) (37 °C): -0.983 ± 0.13

Sequence: CCGAAGCAAUAUUACGUCAU
- self-splicing fitness (ln) (30 °C): -4.87 ± 0.42
- self-splicing fitness (ln) (37 °C): -3.03 ± 0.33

Sequence: UGGCAGCAAUAUUACGUUGG
- self-splicing fitness (ln) (30 °C): -2.33 ± 0.11
- self-splicing fitness (ln) (37 °C): -0.227 ± 0.13

Sequence: CACUAGCAAUAUUACGUGCU
- self-splicing fitness (ln) (30 °C): -3.69 ± 0.2
- self-splicing fitness (ln) (37 °C): -2.55 ± 0.15

Sequence: GGGUAGCAAUAUUACGUGGU
- self-splicing fitness (ln) (30 °C): -2.59 ± 0.13
- self-splicing fitness (ln) (37 °C): -2.04 ± 0.17

Sequence: ACCCAGCAAUAUUACGAAGU
- self-splicing fitness (ln) (30 °C): -0.678 ± 0.058
- self-splicing fitness (ln) (37 °C): 0.183 ± 0.074

Sequence: GUCGAGCAAUAUUACGUAUG
- self-splicing fitness (ln) (30 °C): -3.13 ± 0.32
- self-splicing fitness (ln) (37 °C): -0.147 ± 0.21

Sequence: UAUUAGCAAUAUUACGCACU
- self-splicing fitness (ln) (30 °C): -1.04 ± 0.19
- self-splicing fitness (ln) (37 °C): -1.12 ± 0.16

Sequence: GCAUAGCAAUAUUACGUAGA
- self-splicing fitness (ln) (30 °C): -2.41 ± 0.16
- self-splicing fitness (ln) (37 °C): -0.999 ± 0.17

Sequence: GCGCAGCAAUAUUACGAGGC
- self-splicing fitness (ln) (30 °C): -2.7 ± 0.35
- self-splicing fitness (ln) (37 °C): -1.29 ± 0.24

Sequence: GUAAAGCAAUAUUACGGCAC
- self-splicing fitness (ln) (30 °C): 0.217 ± 0.12
- self-splicing fitness (ln) (37 °C): 0.134 ± 0.15

Sequence: GUAAAGCAAUAUUACGUCGC
- self-splicing fitness (ln) (30 °C): -1.35 ± 0.11
- self-splicing fitness (ln) (37 °C): -0.63 ± 0.13

Sequence: UAACAGCAAUAUUACGCAAG
- self-splicing fitness (ln) (30 °C): -2.08 ± 0.078
- self-splicing fitness (ln) (37 °C): -2.23 ± 0.074

Sequence: AUAUAGCAAUAUUACGGCUG
- self-splicing fitness (ln) (30 °C): -0.816 ± 0.14
- self-splicing fitness (ln) (37 °C): 0.663 ± 0.19

Sequence: UGUAAGCAAUAUUACGAAGC
- self-splicing fitness (ln) (30 °C): -3.44 ± 0.28
- self-splicing fitness (ln) (37 °C): -2.61 ± 0.34

Sequence: AUACAGCAAUAUUACGCACA
- self-splicing fitness (ln) (30 °C): -0.789 ± 0.11
- self-splicing fitness (ln) (37 °C): 0.62 ± 0.12

Sequence: AAAAAGCAAUAUUACGCUGA
- self-splicing fitness (ln) (30 °C): -4.19 ± 0.34
- self-splicing fitness (ln) (37 °C): -1.7 ± 0.17

Sequence: ACACAGCAAUAUUACGGACU
- self-splicing fitness (ln) (30 °C): -0.884 ± 0.054
- self-splicing fitness (ln) (37 °C): 0.0735 ± 0.063

Sequence: UUAUAGCAAUAUUACGCACU
- self-splicing fitness (ln) (30 °C): -1.15 ± 0.16
- self-splicing fitness (ln) (37 °C): -0.214 ± 0.21

Sequence: GCUCAGCAAUAUUACGAGGG
- self-splicing fitness (ln) (30 °C): -2.38 ± 0.16
- self-splicing fitness (ln) (37 °C): -2.57 ± 0.25

Sequence: AUGUAGCAAUAUUACGGUCU
- self-splicing fitness (ln) (30 °C): -0.562 ± 0.096
- self-splicing fitness (ln) (37 °C): -0.014 ± 0.1

Sequence: UCAGAGCAAUAUUACGUGGA
- self-splicing fitness (ln) (30 °C): -2.49 ± 0.17
- self-splicing fitness (ln) (37 °C): -0.107 ± 0.12

Sequence: UGCAAGCAAUAUUACGCCUG
- self-splicing fitness (ln) (30 °C): -2.3 ± 0.13
- self-splicing fitness (ln) (37 °C): -2.5 ± 0.25

Sequence: GUUUAGCAAUAUUACGGACA
- self-splicing fitness (ln) (30 °C): -1.68 ± 0.25
- self-splicing fitness (ln) (37 °C): -1.44 ± 0.25

Sequence: UCAGAGCAAUAUUACGAAGG
- self-splicing fitness (ln) (30 °C): -2.15 ± 0.085
- self-splicing fitness (ln) (37 °C): -1.84 ± 0.12

Sequence: CGACAGCAAUAUUACGAAGG
- self-splicing fitness (ln) (30 °C): -1.94 ± 0.092
- self-splicing fitness (ln) (37 °C): -0.848 ± 0.13

Sequence: ACAAAGCAAUAUUACGUUAG
- self-splicing fitness (ln) (30 °C): -2.73 ± 0.11
- self-splicing fitness (ln) (37 °C): -2.69 ± 0.17

Sequence: CCACAGCAAUAUUACGUUUA
- self-splicing fitness (ln) (30 °C): -3.53 ± 0.15
- self-splicing fitness (ln) (37 °C): -2.47 ± 0.16

Sequence: GAAAAGCAAUAUUACGGGUC
- self-splicing fitness (ln) (30 °C): -2.09 ± 0.14
- self-splicing fitness (ln) (37 °C): -2.58 ± 0.22

Sequence: CAAGAGCAAUAUUACGCUUU
- self-splicing fitness (ln) (30 °C): -3.3 ± 0.19
- self-splicing fitness (ln) (37 °C): -2.58 ± 0.18
